The record followed here is publication PMC12243196, “Division of the large and multifunctional glycoside hydrolase family 2: high functional specificity and biochemical assays in the uncharacterized subfamilies” (Biotechnology for Biofuels and Bioproducts, 2025).

Data set [1] has as its target T1, AmGH2_9 (Akkermansia muciniphila, UniProt B2UM41).
T1 construct: gene Amuc_1667
Kind of data set: activity screening, absorbance at […] nm. Type of data set: biochemical.

The test system of data set [2] is T2, BfGH2_9.
T2 construct: gene BF638R_1918
T2 sequence (E1WVB9 30-864 limits assumed): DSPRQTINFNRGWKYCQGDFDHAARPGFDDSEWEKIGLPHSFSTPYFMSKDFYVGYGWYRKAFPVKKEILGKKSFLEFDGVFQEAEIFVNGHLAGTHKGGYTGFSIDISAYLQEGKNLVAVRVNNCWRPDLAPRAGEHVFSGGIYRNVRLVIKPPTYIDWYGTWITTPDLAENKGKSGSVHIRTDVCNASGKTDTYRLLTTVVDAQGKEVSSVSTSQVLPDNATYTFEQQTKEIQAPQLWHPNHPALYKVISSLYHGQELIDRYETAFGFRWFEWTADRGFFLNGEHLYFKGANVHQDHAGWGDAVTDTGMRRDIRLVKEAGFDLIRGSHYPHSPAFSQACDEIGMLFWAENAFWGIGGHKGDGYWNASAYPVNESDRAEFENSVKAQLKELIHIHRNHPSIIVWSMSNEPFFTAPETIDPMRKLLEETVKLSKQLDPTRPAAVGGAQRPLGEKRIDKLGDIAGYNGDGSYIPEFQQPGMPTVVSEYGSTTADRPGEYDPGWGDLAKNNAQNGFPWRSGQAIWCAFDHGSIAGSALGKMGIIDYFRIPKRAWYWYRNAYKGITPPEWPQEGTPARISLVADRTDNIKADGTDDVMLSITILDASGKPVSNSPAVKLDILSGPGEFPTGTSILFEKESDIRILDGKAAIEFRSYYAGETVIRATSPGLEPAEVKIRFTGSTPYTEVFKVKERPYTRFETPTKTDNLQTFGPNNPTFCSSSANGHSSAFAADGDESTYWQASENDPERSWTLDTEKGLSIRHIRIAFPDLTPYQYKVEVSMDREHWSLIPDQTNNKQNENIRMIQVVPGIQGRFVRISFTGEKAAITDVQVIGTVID

Substrate in data set [3]: O=[N+]([O-])c1ccc(O[C@@H]2O[C@H](CO)[C@H](O)[C@H](O)[C@H]2O)cc1
As to the kind of experiment: purified protein.

Like-named read-outs stand apart in the source and are kept apart here.

T1 sequence (B2UM41 entry or part of it): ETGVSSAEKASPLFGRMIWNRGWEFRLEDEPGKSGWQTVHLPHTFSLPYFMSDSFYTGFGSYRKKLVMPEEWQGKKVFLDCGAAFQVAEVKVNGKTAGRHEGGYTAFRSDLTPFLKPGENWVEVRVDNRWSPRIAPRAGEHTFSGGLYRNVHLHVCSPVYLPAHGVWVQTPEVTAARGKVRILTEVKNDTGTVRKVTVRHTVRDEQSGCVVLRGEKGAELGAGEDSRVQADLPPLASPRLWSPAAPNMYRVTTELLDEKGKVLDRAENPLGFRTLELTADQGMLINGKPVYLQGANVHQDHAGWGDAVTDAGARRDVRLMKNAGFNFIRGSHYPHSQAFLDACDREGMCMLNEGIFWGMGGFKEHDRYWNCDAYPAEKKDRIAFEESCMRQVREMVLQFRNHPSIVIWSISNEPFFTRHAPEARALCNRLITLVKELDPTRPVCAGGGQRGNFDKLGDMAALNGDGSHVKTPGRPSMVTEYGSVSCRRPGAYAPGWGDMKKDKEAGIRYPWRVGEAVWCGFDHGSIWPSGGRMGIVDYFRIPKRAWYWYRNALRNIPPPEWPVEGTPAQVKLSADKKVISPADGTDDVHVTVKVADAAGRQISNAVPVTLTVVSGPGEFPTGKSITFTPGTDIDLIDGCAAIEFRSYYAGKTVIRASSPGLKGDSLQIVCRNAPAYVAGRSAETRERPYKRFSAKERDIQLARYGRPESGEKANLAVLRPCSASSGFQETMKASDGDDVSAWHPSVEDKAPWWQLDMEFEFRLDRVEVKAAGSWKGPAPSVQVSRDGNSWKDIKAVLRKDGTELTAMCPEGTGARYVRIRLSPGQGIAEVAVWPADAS

In the case of `O=[N+]([O-])c1ccccc1O[C@@H]1O[C@H](CO)[C@H](O)[C@H](O)[C@H]1O` [oNP-β-D-Galp], the “activity screening, absorbance at 405 nm” value in data set [1] and in data set [2] was “All the enzymes also displayed activity on oNP-β-D-Galp (data not shown)” throughout.

B1: (Ruminiclostridium cellobioparum subsp. termitidis CT1112) (protein)
chain: MNNRKQICLNGLWDFCPGNGTLDRIPRKWDKTQIKVPSPWNINTFAGPEKLTCGEEEIFLRGGEFNLYPEYPKAWENAQSGWYKTEMFIDEEWRGKVITLKFNAVLFYSEFYINGKLISTDADGFLPHEFPVQDHVKYGGSNTLVVGVKKLDAFRYKNEAGKNRIEYPTGSFWGKTMGGIWQDVYLNVYPHDHITDIFVRTDVNSNILRVDADLAADRGEDFTVGMVLREWSGDRSFKLACGLPVNGNSVEFIFDYSGIKDEIRQWWPDSPELYYIDVILHSGNEIVDVKTARFGFKSFEVRGKQFYLNGTPINLRNDSWHYMGFAYQNEEYARLWYKMARDANVNCIRLHAQVYPEFFLDMADEMGMMIVDETSIWASHCEFHYSMEFVENGKKHIKRMIERDRNHPSIIIWSVENECIMAYRVSADDGVKDENELNERLFLLAEYAGSLDPTRPVSGDGSQDMGGRLDVYSLHYPGKKGPENVNKPVTIGEMGSLYYATPDCVCNQYGEKTYLSFDGRLEAIGRELFENLKHERKWAAQVCVFNLVWYGLKPLPFKERIINYPDLSLPGVKPTRTGPYISTLNAAYDDSLPEYIPNTVFEWVRQAYLPERFFFEEGRSRYYNGEAGAKKISVFNDSFEEKEYILEWQMEQKGEILGSGNKSVLVNPAGYEELDIEFDLPAADSIERLSLRILMKFRDNIVFEDVCSIKVYNKNHIFSFMGGFGKVGILGGSRLDANEFFEKSGIETVDGLTQGIDIYLLEECTEEAAAGLTWACCSVLDLLPEKHGFKSWLSHGSAENAFLNVDDRTLMENLEEEDLSNWGNGYLCNNTFQDNLCVSAFNLFCTGKGIPLILDVKNGKARQLVSTIPLLKWAAEEPAALVLLSNLIAYAAQTGKTEAHECVLVSKKDSDMHRSFENMGIDFTLAEVKNRDQIRSLREVKLLVADGSCRLDYLDEIMPYNAEQILLCNFDEATLPDSLKGYIEVVEKPLYQLIKAGKDNALTDGIHAGDLYGLEAGQETVICKRPFLIKDDRKVKGLLKNADLNWRMWNFQGEDRKTVSILRSEQETKTPLYGLAETHINTVKVILGQIDMSYANRKLERLASRFFLQYGTYSKL
The Km is the substrate concentration at which the rate is half of its maximum. One may read the kcat as the maximal rate divided by the concentration of active sites. For orientation: kcat/Km means the turnover number divided by the Michaelis constant. Turning to B1, in data set [3] (40.0 °C), the Km worked out at 40 ± 1.2 µM, the kcat was determined as 0.0233 s⁻¹ and the kcat/Km was found to be 586 M⁻¹ s⁻¹.

B2: (Zobellia galactanivorans) (protein)
chain: QTEKVDLPGEERMLLSGNWKFHAIYGEGSNYIDISETLEDIVIDNTDKDRVSVKGDWKTRSEGERGSGFLGTDYLQRDFKSGESDQNYVRYRPELPESGFYEAFVRFPFASHLTAEVNVNHAQGITAAYFNQRNRCDQWLSLGVFSFDKTLDSYVEVTAITASTVVADAVMFRPVSKEKMEEADIEKSSVFQVDFDDSNWKDLRVPGHWGMLNAYSNYTGKGWYRKTFELPKNWKSVSNERIRLKFDAVYHIARVFLNGELVGLHQGGFTPFEFDITDKLNYNGQNVLAVEADNNALVGATWNWGGIIREVHLIKNNDVRISYQYIHADPDLKKGSANLKLKVRIKNSSTRQRTVLLAAHIEEASSPVDLTYKVKVPANSTQEIQLATTLPATDVKLWHFDTPNLYHLTTTISENGQVLDTQKDRFGIRKIELTDSQLILNGEPVRLSGFNRVSDHRYWGSSEPQYLIDKDVDLMKNAGANFMRIMHGTQNKKLMDRCDEKGILIFEEVNVRELTNPEFTPPHYPLAKQWLKEMIERDVNHPSIIGWSVGNELKDHFDYAKETIDYVKKELDPYRLVTCVSNSGWRDSATPEKDPNTLVDIIMHNLYPFQGTPDKVFKTLRAKWPDKPIFISEYGIKPMATTSLDGDIPELSEWNDHLRGKNTYVIGASLWTFNDYRSGYAATSPEENRVWGLVNTWRQKRKLYHRIQKENSPLADLKIDGIDLKNGGAKVRITPKPVNGYPVYSLKGYTLEFTMYDKQGEILFSKTHSLPHIVPGGKPTEVAIDWQRYMTGMAQIHAAVISPNGYIRHQTSISLELPEKTSILAIEKGHGTVRVHYRPVFGADTYYVAYADGKGLERKSDTSTTHSIEIKDLDPEEEYAFSVIAQNSKGKSVPSGTRTTKANADVLPPMIWDAFLSDGKLVVGYSGAPDDVEYIVKYGLRDSYFPYKNSTRTKGMTVIDFEGDDPHFVSIKKKTKTGESDWSKPIHVYTIRNKERYRN
As for B2, in data set [3], the Km is 67 ± 8.3 µM, the kcat amounted to 0.0133 s⁻¹ and the kcat/Km stood at 204 M⁻¹ s⁻¹.

B3: (Saccharophagus degradans 2-40) (protein)
chain: MVVNTDITQWSLTKTNANGAQTPADIIPLQQWLAVPVPGTVAQAVGDAGPQEDLEQFDWWYTAQFPLPKTGKRTYLQCDGLATLSEVWVNDQQVLYSQSMFENHKLDITDYLQADNTLAIVFKALAPHLAERRARPQWKTNLVDNQNLRWFRTSLLGRMPGWTPPVKAIGPWRDISIVSVAKFDLVECTVFSEVDEALNGKVHINLELDFIDAKLAADPQIQFLLDGKIYPITAKPIKGGGAFIDTEIAIEQPQLWWPHTHGEPYLHAYKITAIIDGEVTTLTEGKLGFKRVTAANQTNQLALEVNNNKIFCRGACWATPNITSLNASKQEYRHLLKLLVDAGANMVRIGGTMVYEHDDFYALCDELGILVWQDFMFANMDYPFADEDFSKLVAKEVRQQITRLKQTASIAVFCGNSEMQQQAAMMGMEQTQWANALFDTFITQKLEEQQLTLPYFTSSPCEGGLPFHTDAGLTHYYGVGAYKLMPDHFTVREVGFTSECLGFSHIPVTASLKQAFESPYPATHTPSWKAGIPRDNSAGWDFEDIRNFYLEKIFGVVADTLRYSDPETYFKLATIATAEMVSSVYSIWRASISNCNGALAWFYQDIVAGAGWGIVDSFARPKAAYYFLKRVWQPQQVLLINNSLNGYTLEVQNETAHTLQAQLNIVLVGLSDNIVAEHTQEITLAANSVGTHKLDTVFGRFMDATHAYKFGRQTIYAVVAELRNESGELISQAVSFPGCRRINTGAGEITGSITSDSDNESVVTLTPSVFVEYACLESKTTQFSDNYTCMLPGKTYSFKACEQIKSVHVSTLNLQKEFRVT
B3: in data set [3] (40.0 °C), the Km is recorded as 64 ± 12.6 µM, the kcat was 0.02 s⁻¹ and the kcat/Km was 306 M⁻¹ s⁻¹.
